# Source: paper PMC6461199
# Biological target: TDP-43 N-RRM1-2 (UniProt Q13148 1-269)
# Experiment: BLI
# Chain of TDP-43 N-RRM1-2 (Q13148 1-269): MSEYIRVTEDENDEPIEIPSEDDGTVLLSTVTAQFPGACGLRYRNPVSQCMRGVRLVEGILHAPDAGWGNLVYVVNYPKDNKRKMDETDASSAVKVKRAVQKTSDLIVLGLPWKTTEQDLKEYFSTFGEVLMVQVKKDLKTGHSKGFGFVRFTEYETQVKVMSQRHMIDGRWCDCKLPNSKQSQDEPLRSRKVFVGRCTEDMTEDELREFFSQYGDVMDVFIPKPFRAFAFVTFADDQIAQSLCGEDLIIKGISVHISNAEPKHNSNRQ
row,Binder,Kd
1,CUCACAUUAUCA (ssRNA) [NegRNA12S2],1340 nM
2,UAGAGUAUGAUG (ssRNA) [RNA12S1],60 nM
3,GUGUGAAUGAAUGUGUGAAUGAAUGUGUGAAUGAAU (ssRNA) [RNA36],22 nM
4,GUGUGAAUGAAU (ssRNA) [RNA12],6.3 nM
5,UUAUACCUACCA (ssRNA) [NegRNA12S1],1650 nM
6,AAGUGUGGUAUA (ssRNA) [RNA12S2],75 nM
7,AUUCAUUCACAC (ssRNA) [NegRNA12],1900 nM
